These are literature values, as cited in article PMC7640956.

This data set deals with Spike RBD (Severe acute respiratory syndrome coronavirus 2) (UniProt P0DTC2).

As a reminder, the Kd is the concentration at which binding is half-saturated. On to “ACE2-derived 23-mer peptide (from UniProt Q9BYF1)”, for which the Kd was 47 nM.
